The source of these data is the RNAGym collection of RNA variant scans (doi:10.7554/elife.80360).

To fix the notation:
B1: Hammerhead Ribozyme (parent)
chain: ACCGGAUGUGCUUUCCGGUCUGAUGAGUCCGUGAGGACGAAACAG

The variants in the data set derive from B1. Put plainly: self-cleavage, relative activity (ratio to wild type); higher = more cleavage; co-transcriptional.
C16A A34G: the self-cleavage was 1.17.

On to C16A A34C, for which the self-cleavage amounted to 0.799.

In the case of C16A A34U, the self-cleavage was 0.719.

For the variant C15A G27U, the self-cleavage amounted to 0.4.

With C15A G27C, the self-cleavage came to 0.435.

C15A G27A: the self-cleavage is 0.589.

Consider C15G G33U, for which the self-cleavage was determined as 1.

For C15G G33C, the self-cleavage came out at 1.04.

With C15G G33A, the self-cleavage is 0.9.

Take C16A A26G: the self-cleavage worked out at 0.37.

Take C16A A26U: the self-cleavage was found to be 0.59.

Take C16A A26C: the self-cleavage worked out at 0.433.

In the case of U14G U28G, the self-cleavage is 0.585.

On to U14G U28A, for which the self-cleavage turned out to be 0.796.

With U14G U28C, the self-cleavage is 0.602.

Take C15G C20G: the self-cleavage came out at 0.283.

Regarding C15G C20A, the self-cleavage amounted to 0.361.

For C15G C20U, the self-cleavage was 0.453.

As for C15U, the self-cleavage came to 0.912.

In the case of C15A, the self-cleavage amounted to 0.93.

Consider C15G, for which the self-cleavage was 0.877.

As for C16A G18U, the self-cleavage came out at 0.525.

C16A G18C: the self-cleavage was 0.341.

Take C16A G18A: the self-cleavage is 0.351.

On to C16A G17U, for which the self-cleavage turned out to be 0.325.

Turning to C16A G17C, the self-cleavage turned out to be 0.386.

As for C16A G17A, the self-cleavage is 0.374.

Regarding C15U U21G, the self-cleavage is 0.859.

For the variant C15U U21C, the self-cleavage was found to be 0.556.

Turning to C15U U21A, the self-cleavage is 0.595.

For C15U C43G, the self-cleavage is 0.305.

For the variant C15U C43U, the self-cleavage amounted to 0.483.

C15U C43A: the self-cleavage is 0.413.

Consider C15A G35U, for which the self-cleavage was 0.583.

Regarding C15A G35A, the self-cleavage was 0.453.

In the case of C15A G35C, the self-cleavage worked out at 0.509.

As for C15U G25A, the self-cleavage is 0.366.

Take C15U G25U: the self-cleavage was determined as 0.314.

Turning to C15U G25C, the self-cleavage is 0.314.

In the case of C15U A44U, the self-cleavage came to 0.664.

As for C15U A44G, the self-cleavage stood at 1.21.

Turning to C15U A44C, the self-cleavage is 0.596.

In the case of C15G G31C, the self-cleavage was 0.792.

In the case of C15G G31A, the self-cleavage was 1.01.

With C15G G31U, the self-cleavage turned out to be 0.856.

On to C15U G18U, for which the self-cleavage amounted to 0.643.

For C15U G18A, the self-cleavage is 0.554.

As for C15U G18C, the self-cleavage was determined as 0.491.

Regarding C15U G36A, the self-cleavage amounted to 0.734.

Turning to C15U G36C, the self-cleavage came to 0.356.

On to C15U G36U, for which the self-cleavage turned out to be 0.521.

For C15U A34U, the self-cleavage turned out to be 0.843.

C15U A34C: the self-cleavage came to 0.98.

Take C15U A34G: the self-cleavage stood at 0.813.

As to C16A A42U, the self-cleavage is 0.27.

As to C16A A42G, the self-cleavage came out at 0.296.

For C16A A42C, the self-cleavage was determined as 0.399.

For the variant C15A A44U, the self-cleavage came out at 0.441.

As for C15A A44C, the self-cleavage stood at 0.404.

As for C15A A44G, the self-cleavage came to 0.897.

Take C16A C43G: the self-cleavage turned out to be 0.294.

Regarding C16A C43A, the self-cleavage amounted to 0.304.

For the variant C16A C43U, the self-cleavage stood at 0.438.

For C15G U28A, the self-cleavage is 0.389.

Take C15G U28G: the self-cleavage was 0.384.

With C15G U28C, the self-cleavage came to 0.528.

Turning to U14G U21G, the self-cleavage worked out at 0.572.

Consider C15A G17A, for which the self-cleavage is 0.351.

With C15A G17U, the self-cleavage amounted to 0.374.

With C15A G17C, the self-cleavage stood at 0.328.

For the variant C15G C29A, the self-cleavage stood at 0.404.

Regarding C15G C29U, the self-cleavage was found to be 0.822.

For the variant C15G C29G, the self-cleavage came to 0.485.

As for C15A G31C, the self-cleavage was 0.807.

For the variant C15A G31A, the self-cleavage was determined as 1.05.

C15A G31U: the self-cleavage stood at 0.999.

With C16A C38U, the self-cleavage was 0.85.

Turning to C16A C38A, the self-cleavage stood at 0.631.

As to C16A C38G, the self-cleavage worked out at 0.542.

As for C15A U32G, the self-cleavage worked out at 0.769.

For the variant C15A U32C, the self-cleavage turned out to be 0.952.

For the variant C15A U32A, the self-cleavage was found to be 0.782.

In the case of C16A A23G, the self-cleavage is 0.357.

Take C16A A23U: the self-cleavage is 0.305.

For C16A A23C, the self-cleavage came to 0.32.

Take U14G U24A: the self-cleavage came to 1.03.

On to U14G U24G, for which the self-cleavage amounted to 0.575.

In the case of U14G U24C, the self-cleavage is 0.611.

For the variant C15A C38U, the self-cleavage turned out to be 0.814.

As for C15A C38G, the self-cleavage came out at 0.515.

On to C15A C38A, for which the self-cleavage was 0.501.

As to C15U A23U, the self-cleavage came to 0.342.

C15U A23G: the self-cleavage stood at 0.271.

With C15U A23C, the self-cleavage was determined as 0.36.

Take C15A C43A: the self-cleavage turned out to be 0.341.

For C15A C43U, the self-cleavage is 0.415.

In the case of C15A C43G, the self-cleavage came to 0.337.

As for C15G A44G, the self-cleavage came out at 0.834.

Turning to C15G A44C, the self-cleavage came out at 0.277.

Turning to C15G A44U, the self-cleavage is 0.408.

On to C15U U19A, for which the self-cleavage turned out to be 0.344.

With C15U U19C, the self-cleavage is 0.581.

As for C15U U19G, the self-cleavage is 0.327.

With C15G G35A, the self-cleavage came to 0.468.

As for C15G G35C, the self-cleavage amounted to 0.456.

For the variant C15G G35U, the self-cleavage was 0.455.

Consider C16A A37G, for which the self-cleavage worked out at 0.874.

C16A A37C: the self-cleavage stood at 0.898.

Consider C16A A37U, for which the self-cleavage was determined as 0.616.

Consider C15G C16A, for which the self-cleavage was found to be 0.367.

For the variant C15G C16U, the self-cleavage is 0.58.

C15G C16G: the self-cleavage is 0.384.

Regarding C15U U32G, the self-cleavage came out at 0.623.

On to C15U U32A, for which the self-cleavage is 1.

As for C15U U32C, the self-cleavage came to 0.93.

Consider C15A U28G, for which the self-cleavage was determined as 0.378.

On to C15A U28A, for which the self-cleavage is 0.413.

For the variant C15A U28C, the self-cleavage was determined as 0.425.

For C16A, the self-cleavage amounted to 1.21.

On to C16A C30U, for which the self-cleavage is 1.32.

With C16A C30G, the self-cleavage stood at 0.591.

C16A C30A: the self-cleavage is 0.911.

For the variant C15G U32C, the self-cleavage is 0.804.

Regarding C15G U32A, the self-cleavage came to 0.875.

Regarding C15G U32G, the self-cleavage was 0.574.

Regarding C15A G36A, the self-cleavage was 0.407.

Turning to C15A G36U, the self-cleavage amounted to 0.341.

With C15A G36C, the self-cleavage amounted to 0.379.

As to C15G U21C, the self-cleavage came to 0.275.

Take C15G U21A: the self-cleavage came out at 0.424.

On to C15G U21G, for which the self-cleavage was found to be 0.326.

For the variant C15A A42G, the self-cleavage was 0.264.

For the variant C15A A42C, the self-cleavage was found to be 0.291.

For C15A A42U, the self-cleavage is 0.282.

For the variant C15G G27U, the self-cleavage came out at 0.339.

Regarding C15G G27C, the self-cleavage came out at 0.427.

As to C15G G27A, the self-cleavage was 0.464.

For C15U A42C, the self-cleavage amounted to 0.351.

For the variant C15U A42U, the self-cleavage came out at 0.329.

For C15U A42G, the self-cleavage worked out at 0.265.

On to C15G U24A, for which the self-cleavage was 0.717.

In the case of C15G U24G, the self-cleavage was determined as 0.574.

On to C15G U24C, for which the self-cleavage was 0.818.

As to C15G A26C, the self-cleavage stood at 0.321.

Take C15G A26G: the self-cleavage amounted to 0.364.

On to C15G A26U, for which the self-cleavage was 0.516.

C15U C30G: the self-cleavage was 0.641.

Take C15U C30U: the self-cleavage worked out at 0.735.

In the case of C15U C30A, the self-cleavage came to 0.696.

In the case of C15U G39C, the self-cleavage amounted to 0.407.

With C15U G39U, the self-cleavage turned out to be 0.37.

For C15U G39A, the self-cleavage came out at 0.347.

As for C15G G17C, the self-cleavage turned out to be 0.323.

Turning to C15G G17U, the self-cleavage worked out at 0.321.

Take C15G G17A: the self-cleavage was 0.322.

As for C15U G45U, the self-cleavage worked out at 0.822.

Consider C15U G45A, for which the self-cleavage is 0.842.

With C15U G45C, the self-cleavage was 0.646.

Take C15U U28C: the self-cleavage came to 0.803.

As for C15U U28G, the self-cleavage was determined as 0.568.

With C15U U28A, the self-cleavage stood at 0.516.

With C15U A37G, the self-cleavage stood at 0.789.

As to C15U A37C, the self-cleavage was 0.714.

Turning to C15U A37U, the self-cleavage was found to be 0.953.

As to C15U A40G, the self-cleavage is 0.269.

Consider C15U A40U, for which the self-cleavage was determined as 0.307.

C15U A40C: the self-cleavage is 0.385.
